Reference: patent US20240325555A1 (LANOVA MEDICINES, published 2024)
Read-outs that look alike come from different tables or passages of the source.

T1: human LIV-1 (human, UniProt Q13433 29-755)
T1 construct: whole, on cells; also called H-LIV1
T1 sequence (looked up): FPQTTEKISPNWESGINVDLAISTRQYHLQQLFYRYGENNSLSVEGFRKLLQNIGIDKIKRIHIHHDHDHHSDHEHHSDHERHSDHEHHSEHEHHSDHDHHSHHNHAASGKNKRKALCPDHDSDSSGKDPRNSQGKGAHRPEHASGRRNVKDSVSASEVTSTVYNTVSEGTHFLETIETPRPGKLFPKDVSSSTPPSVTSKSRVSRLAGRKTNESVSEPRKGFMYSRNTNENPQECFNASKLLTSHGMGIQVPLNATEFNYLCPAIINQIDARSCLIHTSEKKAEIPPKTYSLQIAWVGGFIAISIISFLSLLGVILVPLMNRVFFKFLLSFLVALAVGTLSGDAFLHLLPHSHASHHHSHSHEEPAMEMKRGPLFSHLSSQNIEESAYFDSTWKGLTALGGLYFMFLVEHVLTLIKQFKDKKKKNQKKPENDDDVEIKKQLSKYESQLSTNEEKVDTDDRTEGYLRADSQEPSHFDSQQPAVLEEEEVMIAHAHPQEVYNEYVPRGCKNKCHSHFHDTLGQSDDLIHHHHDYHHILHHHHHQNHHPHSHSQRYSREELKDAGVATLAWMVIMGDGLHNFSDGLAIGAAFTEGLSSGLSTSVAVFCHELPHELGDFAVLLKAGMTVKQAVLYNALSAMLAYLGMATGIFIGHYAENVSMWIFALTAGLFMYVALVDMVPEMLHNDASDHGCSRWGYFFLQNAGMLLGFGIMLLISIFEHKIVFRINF

B1: 82C7C7 (antibody, V domains shown)
VH: EVQLQQSGAELVKPGASIKLSCTPSGFNIKDTFIHWVKQRPEQGLEWIGRIDPANGNTRYDPKFQGKATITADTSSNTAYLQLISLTSEDTAVYYCAGGSISTVVPDYWGQGTTLTVSS
VL: DVVVTQTPLSLPVSLGDQASISCRSSQSLVHNNGNTYLHWYLQKPGQSPKLLIYKVSNRFSGVPDRFSGSGSGTDFTLKISRVEAEDLGVYFCSQSTHVPYTFGGGTKLEIK
notes: Tested as chimeric antibody
B2: 79F5G5 (antibody, V domains shown)
VH: EVQLQQSGAELVRSGASVKLSCTASGFNIKDYYMHWVKQRPEQGLEWIGWIDPENGDTEYAPKFQGKATLTADTSSNTAYLQLSSLTFEDTAVYYCPHGGGLRVFDYWGQGTSLTVSS
VL: DVLMTQIPLSLSVSLGDQASISCRSSQSIVHSNGNTYLEWYLQKPGQSPKLLIYKVSNRFSGVPDRFSGSGSGTDFTLKISRVEAEDLGVYYCFQGSHVPWTFGGGTKLEIK
notes: Tested as chimeric antibody
B3: 94C4B9 (antibody, V domains shown)
VH: EVQLQQSGTVLARPGASVKMSCKASGYTFINYWMHWVKQRPGQGLEWIGAFYPGNSDTSYNQKFKDKAKLTAVTSTSTAYMEFSSLTNEDSAVYYCTRDFTAVPYFDYWGQGTTLTVSS
VL: DILMTQTPLSLPVSLGDQASISCRSSQSIVHSNGNTYLEWYLQKPGQSPKLLIYKVSNRFSGVPDRFSGSGSGTDFTLKISRVEAEDLGVYYCFQGSYVPLTFGVGTKLELK
notes: Tested as chimeric antibody
B4: 124H4D11.p2.z15 (antibody, V domains shown)
VH: QVPLVQSGAEVVKPGASVKLSCKASGFNIKDYYMHWVKQAPGQGLEWIGWIDPENDDTEYDPKFQGRATMTADTSTSTAYLELSSLRSEDTAVYYCNARYYAFDYWGQGTTVTVSS
VL: DVLMTQSPLSLPVTLGQPASISCRSSQSIVHSNANTYLEWYLQRPGQSPKLLIYKVSNRFSGVPDRFSGSGSGTEFTLKISRVEAEDLGVYYCFQGSQVPPTFGGGTKLEIK
B5: 124H4D11.p2.z14 (antibody, V domains shown)
VH: QVPLVQSGAEVVKPGASVKLSCKASGFNIKDYYMHWVKQAPGQGLEWIGWIDPENDDTEYDPKFQGRATMTADTSTSTAYLELSSLRSEDTAVYYCNARYYAFDYWGQGTTVTVSS
VL: DVLMTQSPLSLPVTLGQPASISCRSSQSIVHSNANTYLEWYLQRPGQSPRLLIYKVSNRFSGVPDRFSGSGSGTDFTLKISRVEAEDVGVYYCFQGSQVPPTFGQGTKLEIK
B6: 99B3E8 (antibody, V domains shown)
VH: EVQLQQSGTVLARPGTSVKMSCKASGYTFINYWMHWVRQRPGQGLEWIGAFYPGNSDTSYNQNFKDKAKLTAVTSTSTAYMEFSSLTNEDSAVYYCTRDFTAVPFFDYWGQGTTLTVSS
VL: DVLMTQTPLSLPVSLGDQASISCRSSQSIVHSNGNTYLEWYLQKPGQSPKLLIYKVSNRFSGVPDRFSGSGSGTDFTLKISRVEAEDLGVYYCFQGSYVPLTFGVGTKLELK
notes: Tested as chimeric antibody
B7: 124H4D11.p2.z5 (antibody, V domains shown)
VH: QVQLVQSGAEVVKPGASVKVSCKASGFNIKDYYMHWVRQAPGQGLEWIGWIDPENDDTEYDPKFQGRVTMTADTSTSTVYMELSSLRSEDTAVYYCAARYYAFDYWGQGTMVTVSS
VL: DVLMTQSPLSLPVTLGQPASISCRSSQSIVHSNANTYLEWYLQRPGQSPKLLIYKVSNRFSGVPDRFSGSGSGTEFTLKISRVEAEDLGVYYCFQGSQVPPTFGGGTKLEIK
B8: 90H4F8 (antibody, V domains shown)
VH: QVQLQQSGPELVKPGASVRISCKASGYTFTSYHMHWVKQRPGQGLEWIGWIYPGNVKNQSNEKFKGKATLTADKSSSTAYMHLSSLTSEDSAVYFCARSDITRAFFAYWGQGTLVTVSA
VL: DVLMTQTPLSLPVSLGDQASISCRSSQSIVHSNGNTYLEWYLQKPGQSPKLLIYKVSNRFSGVPDRFSGSGSGTDFTLKISRVEAEDLGVYYCFQGSHGPYTFGGGTKLEIK
notes: Tested as chimeric antibody
B9: 5D6B10.Z5 (antibody, V domains shown)
VH: QVQLVESGGGVVQPGRSLRLSCTVSGFSLTTYGIHWVRQSPGKGLEWLGVIWTGGTTDYNAAFISRLTISKDNSKSTLYFQMNSLRAEDTAVYYCARGPSSYWGQGTLVTVSS
VL: EIVMTQSPATLSVSPGERATVSCKASQNVDTNVVWYQQKPGQSPRALIHSASYRYSGVPDRFSGSGSGTDFTLTISSLQSEDFAVYFCQQYNNYPWTFGQGTKVEIK
B10: 5D6B10.Z3 (antibody, V domains shown)
VH: QVQLVESGGGVVQPGRSLRLSCAVSGFSLTTYGIHWVRQAPGKGLEWLAVIWTGGTTDYNAAFISRFTISKDNSKSTLYLQMNSLRAEDTAVYYCARGPSSYWGQGTLVTVSS
VL: DIVMTQSPATLSVSPGERVTVSCKASQNVDTNVVWYQQKPGQSPRALIHSASYRYSGVPDRFSGSGSGTDFTLTISSVQSEDFAVYFCQQYNNYPWTFGGGTKLEIK
B11: 5D6B10.Z1 (antibody, V domains shown)
VH: QVQLVESGGGVVQPGRSLRLSCAVSGFSLTTYGIHWVRQAPGKGLEWLAVIWTGGTTDYNAAFISRFTISKDNSKSTLYLQMNSLRAEDTAVYYCARGPSSYWGQGTLVTVSS
VL: EIVMTQSPATLSVSPGERATLSCKASQNVDTNVVWYQQKPGQSPRALIYSASYRYSGVPARFSGSGSGTEFTLTISSLQSEDFAVYFCQQYNNYPWTFGQGTKVEIK
B12: 5D6B10.Z4 (antibody, V domains shown)
VH: QVQLVESGGGVVQPGRSLRLSCTVSGFSLTTYGIHWVRQSPGKGLEWLGVIWTGGTTDYNAAFISRLTISKDNSKSTLYFQMNSLRAEDTAVYYCARGPSSYWGQGTLVTVSS
VL: EIVMTQSPATLSVSPGERATLSCKASQNVDTNVVWYQQKPGQSPRALIYSASYRYSGVPARFSGSGSGTEFTLTISSLQSEDFAVYFCQQYNNYPWTFGQGTKVEIK
B13: 5D6B10.Z2 (antibody, V domains shown)
VH: QVQLVESGGGVVQPGRSLRLSCAVSGFSLTTYGIHWVRQAPGKGLEWLAVIWTGGTTDYNAAFISRFTISKDNSKSTLYLQMNSLRAEDTAVYYCARGPSSYWGQGTLVTVSS
VL: EIVMTQSPATLSVSPGERATVSCKASQNVDTNVVWYQQKPGQSPRALIHSASYRYSGVPDRFSGSGSGTDFTLTISSLQSEDFAVYFCQQYNNYPWTFGQGTKVEIK
B14: 92E4E10 (antibody, V domains shown)
VH: EVQLQQSGTVLARPGASVKISCKASGYRFTSYWMHWVKQRPGQGLEWIGAIYPGNSDTTYNQKFKGKAKLTAVTSASTAYMDLSSLTNEDSAVYYCTSLLLRSPFDYWGQGTTLTVSS
VL: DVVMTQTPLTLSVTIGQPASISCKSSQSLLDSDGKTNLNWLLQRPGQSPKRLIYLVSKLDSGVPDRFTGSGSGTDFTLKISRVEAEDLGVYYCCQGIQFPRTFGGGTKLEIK
notes: Tested as chimeric antibody

Legend:
cynomolgus LIV-1 [1] = biological target: T2, cynomolgus LIV-1 (cynomolgus, UniProt A0A2K5WH46 30-741); experiment: FACS, HEK293/Cyno_LIV-1 cells
Method: (§1) In this example, cell based binding of chimeric Abs on human and cyno LIV-1 over-expressing HEK 293 cells were assessed using flow cytometry.
(§2) Briefly, cells were incubated with chimeric Abs (from 100 nM, 5 folds dilution, 8 points). After incubation at 4° C. for 60 minutes, the cells were washed with 2% FBS/PBS buffer twice, then stained with fluorescent conjugated secondary antibody at 4° C. for 30 minutes. After that the cells were washed twice and resuspended in 80 μL of 2% FBS/PBS buffer. Fluorescent signal of binding was detected using Agilent. The EC50 was calculated using the GraphPad Software (LaJolla, CA).

human LIV-1 [2] = biological target: T1, human LIV-1; experiment: FACS, HEK293/H_LIV-1 cells
Method: as §1, §2

cynomolgus LIV-1 [3] = biological target: T2, cynomolgus LIV-1; experiment: FACS, HEK293/Cyno_LIV-1 cells; remark: listed apart in the source
Target sequence in this assay (A0A2K5WH46 entry or part of it): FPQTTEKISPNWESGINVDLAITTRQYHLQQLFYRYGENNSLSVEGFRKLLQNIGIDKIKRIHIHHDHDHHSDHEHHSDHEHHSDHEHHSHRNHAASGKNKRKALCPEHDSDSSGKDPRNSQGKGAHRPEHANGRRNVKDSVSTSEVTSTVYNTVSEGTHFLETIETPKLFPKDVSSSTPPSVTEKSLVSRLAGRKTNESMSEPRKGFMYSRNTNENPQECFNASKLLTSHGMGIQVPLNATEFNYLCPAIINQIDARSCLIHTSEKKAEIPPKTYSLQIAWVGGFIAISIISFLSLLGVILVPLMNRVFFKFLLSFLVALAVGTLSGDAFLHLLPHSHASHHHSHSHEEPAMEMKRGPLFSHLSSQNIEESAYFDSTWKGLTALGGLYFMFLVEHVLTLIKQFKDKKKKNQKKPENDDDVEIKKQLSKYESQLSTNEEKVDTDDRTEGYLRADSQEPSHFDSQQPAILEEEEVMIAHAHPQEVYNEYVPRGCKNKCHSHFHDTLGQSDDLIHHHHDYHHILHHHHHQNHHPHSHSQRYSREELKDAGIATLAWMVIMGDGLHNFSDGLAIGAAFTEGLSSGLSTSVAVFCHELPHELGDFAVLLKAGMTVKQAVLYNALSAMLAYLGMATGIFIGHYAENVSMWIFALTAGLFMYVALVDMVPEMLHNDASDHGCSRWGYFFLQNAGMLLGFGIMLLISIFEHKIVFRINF

human LIV-1 [4] = biological target: T1, human LIV-1; experiment: FACS, HEK293/H_LIV-1 cells; remark: listed apart in the source
Method: In this example, cell based binding of humanized antibodies (hu Abs) on human LIV-1-expressing cells were assessed using flow cytometry.
Cell based binding of hu-Abs on human LIV-1 expressing cells were assessed using flow cytometry. Briefly, the HEK293/H_LIV-1 cells were incubated with hu-Abs (from 100 nM, 6 folds dilution, 8 points). After incubation at 4° C. for 60 minutes, the cells were washed with FACS buffer twice, then stained with fluorescent conjugated secondary antibody at 4° C. for 30 minutes. After that the cells were washed twice and analyzed by flow cytometry.

| Binder | EC50 (cynomolgus LIV-1 [1]) | Top (MFI) (cynomolgus LIV-1 [1]) | EC50 (human LIV-1 [2]) | Top (MFI) (human LIV-1 [2]) | EC50 (cynomolgus LIV-1 [3]) | Top (MFI) (cynomolgus LIV-1 [3]) | Top (MFI) (human LIV-1 [4]) | EC50 (human LIV-1 [4]) |
| --- | --- | --- | --- | --- | --- | --- | --- | --- |
| B1 | 0.5 nM | 7130 MFI | 0.61 nM | 12300 MFI | – | – | – | – |
| B2 | 1.85 nM | 7020 MFI | 9.45 nM | 17500 MFI | – | – | – | – |
| B3 | 0.15 nM | 7860 MFI | 0.22 nM | 11600 MFI | – | – | – | – |
| B4 | – | – | – | – | 5.37 nM | 6910 MFI | 16800 MFI | – |
| B5 | – | – | – | – | 0.5 nM | 7670 MFI | 16800 MFI | – |
| B6 | 0.34 nM | 8240 MFI | 1.04 nM | 12600 MFI | – | – | – | – |
| B7 | – | – | – | – | 0.25 nM | 8070 MFI | 15600 MFI | 0.58 nM |
| B8 | 0.43 nM | 6880 MFI | 1.08 nM | 12200 MFI | – | – | – | – |
| B9 | – | – | – | – | 1.72 nM | 12400 MFI | 43400 MFI | 0.17 nM |
| B10 | – | – | – | – | 0.23 nM | 17200 MFI | 51200 MFI | 0.33 nM |
| B11 | – | – | – | – | 0.13 nM | 19600 MFI | 49800 MFI | 0.16 nM |
| B12 | – | – | – | – | 0.2 nM | 19800 MFI | 53000 MFI | 0.28 nM |
| B13 | – | – | – | – | 4.56 nM | 14900 MFI | 46700 MFI | 0.18 nM |
| B14 | 0.15 nM | 41300 MFI | 0.34 nM | 66200 MFI | – | – | – | – |
